{"source": "patent US20150079111A1", "about": "“MECHANISM, DIAGNOSTIC, AND TREATMENTS FOR COMPLICATIONS OF RENAL FAILURE” (priority 2012, published 2015)", "key": {"[1]": {"tested_on": "renin-angiotensin-aldosterone (RAS) proteins AGT, ACE, AT1", "experiment": "RAS protein levels (AGT, ACE, AT1) in PTCs by Western blot", "format": "cell-based, human", "conditions": "PTCs treated, then exposed to 100 μg/ml of AOPPs (sample set D)", "description": "(§1) Human Tubular Epithelial Cells (HUTEC) cells were cultured in DMEF/F-12 medium containing 10% fetal calf serum, penicillin (200 U/ml) and streptomycin (200 ug/ml) until confluence, and then left serum-free overnight.\nIn sample set D, the PTCs were treated with either copper-zinc superoxide dismutase (an […], c-SOD), one of two inhibitors of NADPH oxidase (either diphenyleneiodonium (DPI) or apocynin), a pan-PKC inhibitor (Go6983), or PKCα inhibitor (Go6976). The PTCs were then exposed to 100 μg/ml of AOPPs. The protein levels of downstream renin-angiotensin-aldosterone (RAS) proteins were measured relative to β-actin. The expression of […], ACE, and AT1 was examined by Western blot."}, "[2]": {"tested_on": "proximal tubule cells (PTCs)", "experiment": "Intracellular ROS production in proximal tubule cells, fluorometric analysis", "format": "cell-based, human", "conditions": "PTCs pre-incubated or transfected, then exposed to AOPPs (sample set C)", "description": "as §1\nIn sample set C, the PTC cells were pre-incubated with either a pan-PKC inhibitor (Gö6983), PKCα inhibitor (Gö6976), anti-RAGE antibody (a-RAGE), transfected with a CD36 siRNA (si-CD36), or both anti-RAGE antibody and transfected with CD36 siRNA (si-CD36+a-RAGE). The PTC cells were then exposed to AOPPs. Intracellular ROS production was determined by a fluorometric analysis."}, "[3]": {"tested_on": "p47phox, a subunit of NADPH oxidase", "experiment": "Phosphorylation of p47phox in AOPP-exposed proximal tubule cells (immunoprecipitation / co-immunoprecipitation)", "format": "cell-based, human", "conditions": "PTCs incubated with inhibitor before AOPP exposure (sample set B)", "description": "as §1\nIn sample set B, PTCs were incubated with either a pan-PKC inhibitor (Gö6983) or PKCα inhibitor (Gö6976) before AOPP exposure. Phosphorylation of p47phox was assayed by immunoprecipitation.\nIn sample set F, the level of phosphorylated p47phox in PTC cells was analyzed by co-immunoprecipitation."}, "[4]": {"conditions": "patients with type-2 diabetes; cited from earlier work"}, "[5]": {"tested_on": "PKCα", "experiment": "Phospho-PKCα (membrane-associated PKC signalling, cellular stress) in HMVECad cells", "format": "cell-based, human", "conditions": "HMVECads exposed to modified RSA versus control unmodified RSA", "text": "(§2) Interfering with human microvascular endothelial cell (HMVECad) SCARB1 expression or blocking the receptor using an antibody ameliorates the effect of MDA-protein or pentosidine-protein on intracellular ROS production. Cryopreserved HMVECads were purchased from Life Technologies and cultured according to the company's instructions in Medium 131 with attachment factor (M-131-500) and addition of Microvascular Growth Supplement until confluence, and then left serum-free overnight.\nNext, the cells were pre-incubated with a polyclonal anti-SCARB1 antibody (a-SRB) or a polyclonal anti-CD36 antibody (a-CD36) or transfected with either SCARB1 siRNA (si-SRB) or CD36 siRNA (siCD36) before exposure to MDA-RSA or Pent-RSA as above. The pre-incubations were performed in various combinations. The labels beneath each set of bars indicate which pre-incubation and which exposure was made to that set. […] The dark bars are read using the left y-axis, and the white bars are read using the right y-axis.\n(§3) The intracellular ROS was a proxy for NADPH oxidase activation and mitochondrial leakage, both of which are linked to cellular stress and induction of apoptosis. The phospho-PKCα measured membrane-associated PKC signalling induced by oxidation and linked to activation of NADPH oxidase and other cellular stressors."}, "[6]": {"tested_on": "AGT, ACE and AT1", "experiment": "Expression of AGT, ACE and AT1 in HMVECad cells by Western blotting", "format": "cell-based, human", "conditions": "HMVECads, 60 minutes, modified RSA versus control", "text": "as §2\n(§4) Next, the cells were pre-incubated with a polyclonal anti-SCARB1 antibody (a-SRB) or a polyclonal anti-CD36 antibody (a-CD36) or transfected with either SCARB1 siRNA (si-SRB) or CD36 siRNA (siCD36) before exposure to MDA-RSA or Pent-RSA as above. The pre-incubations were performed in various combinations. The labels beneath each set of bars indicate which pre-incubation and which exposure was made to that set. The bars labelled “NC-siRNA” were pre-incubated with scramble siRNA and exposed to untreated RSA. The dark bars are read using the left y-axis, and the white bars are read using the right y-axis.\nAfter incubating for 60 minutes, the intracellular ROS production was again determined for the cells of FIG. 20 by a fluorometric analysis. The expression levels of AGT, ACE and AT1 were examined by Western blotting."}, "[7]": {"tested_on": "human microvascular endothelial cell (HMVECad)", "experiment": "Intracellular ROS production in HMVECad cells, fluorometric analysis", "format": "cell-based", "conditions": "for intracellular ROS: HMVECads exposed to modified RSA versus control unmodified RSA; for intracellular ROS production: HMVECads, 100 μg/ml for 15, 30, 60 or 120 minutes, effect of exposure time", "text": "as §2\nFirst, HMVECads were treated with 100 μg/ml of one of three solutions. The first solution (MDA-protein) was rat serum albumin (RSA) treated with an equimolar 1 mmol/L solution of malondialdehyde (MDA) and acetaldehyde for 3 days at 37° C. The second solution was pentosidine-RSA, prepared by incubating 0.5 mg of normal RSA with 0.1 M D-glucose in 0.5 ml of 0.1 M sodium phosphate at 37° C. for 14 days. The third solution (the control) was untreated RSA from the same batch. The HMVECads were treated for 15, 30, 60, or 120 minutes. Following the indicated time, intracellular ROS production was determined by a fluorometric analysis.\nas §4, §3"}}, "data": [{"molecule": "c1ccc2c(c1)[I+]c1ccccc1-2", "note": "[DPI, diphenyleneiodonium]", "values": [{"measurement": "protein levels of RAS proteins (AGT, ACE, AT1) relative to β-actin", "setting": "[1]", "value": "lower levels of these proteins"}]}, {"molecule": "Cn1c2ccccc2c2c3c(c4c5ccccc5n(CCC#N)c4c21)CNC3=O", "note": "[Gö6976, 12-(2-Cyanoethyl)-6,7,12,13-tetrahydro-13-methyl-5-oxo-5H-indolo(2,3-a)pyrrolo(3,4-c)-carbazole]", "values": [{"measurement": "protein levels of RAS proteins (AGT, ACE, AT1) relative to β-actin", "setting": "[1]", "value": "lower levels of these proteins"}, {"measurement": "intracellular ROS production", "setting": "[2]", "value": "Further reduction"}, {"measurement": "phosphorylation of p47phox", "setting": "[3]", "value": "p47phox is phosphorylated through pan-PKC or PKCα"}]}, {"molecule": "COc1cc(C(C)=O)ccc1O", "note": "[apocynin]", "values": [{"measurement": "protein levels of RAS proteins (AGT, ACE, AT1) relative to β-actin", "setting": "[1]", "value": "lower levels of these proteins"}]}, {"molecule": "CC1(C)CC[C@]2(C(=O)O)CC[C@]3(C)[C@H](C(=O)C=C4[C@@]5(C)C=C(C#N)C(=O)C(C)(C)[C@@H]5CC[C@]43C)[C@@H]2C1", "note": "[bardoxolone]", "values": [{"measurement": "nephroprotective effect", "setting": "[4]", "value": "nephroprotective"}]}, {"molecule": "copper-zinc superoxide dismutase [c-SOD]", "values": [{"measurement": "protein levels of RAS proteins (AGT, ACE, AT1) relative to β-actin", "setting": "[1]", "value": "lower levels of these proteins"}]}, {"molecule": "MDA-RSA: rat serum albumin treated with an equimolar 1 mmol/L solution of malondialdehyde and acetaldehyde for 3 days at 37° C. (protein) EAHKSEIAHRFKDLGEQHFKGLVLIAFSQYLQKCPYEEHIKLVQEVTDFAKTCVADENAENCDKSIHTLFGDKLCAIPKLRDNYGELADCCAKQEPERNECFLQHKDDNPNLPPFQRPEAEAMCTSFQENPTSFLGHYLHEVARRHPYFYAPELLYYAEKYNEVLTQCCTESDKAACLTPKLDAVKEKALVAAVRQRMKCSSMQRFGERAFKAWAVARMSQRFPNAEFAEITKLATDVTKINKECCHGDLLECADDRAELAKYMCENQATISSKLQACCDKPVLQKSQCLAEIEHDNIPADLPSIAADFVEDKEVCKNYAEAKDVFLGTFLYEYSRRHPDYSVSLLLRLAKKYEATLEKCCAEGDPPACYGTVLAEFQPLVEEPKNLVKTNCELYEKLGEYGFQNAVLVRYTQKAPQVSTPTLVEAARNLGRVGTKCCTLPEAQRLPCVEDYLSAILNRLCVLHEKTPVSEKVTKCCSGSLVERRPCFSALTVDETYVPKEFKAETFTFHSDICTLPDKEKQIKKQTALAELVKHKPKATEDQLKTVMGDFAQFVDKCCKAADKDNCFATEGPNLVARSKEALA", "values": [{"measurement": "phospho-PKCα (cellular stress signalling)", "setting": "[5]", "value": "caused an increase in activity compared to the control"}, {"measurement": "expression levels of AGT, ACE and AT1", "setting": "[6]", "value": "caused an increase in activity compared to the control"}, {"measurement": "intracellular ROS", "setting": "[7]", "value": "caused an increase in activity compared to the control"}, {"measurement": "intracellular ROS production", "setting": "[7]", "value": "greater ROS production"}]}, {"molecule": "Pent-RSA: prepared by incubating normal RSA with 0.1 M D-glucose in sodium phosphate at 37° C. for 14 days (protein) EAHKSEIAHRFKDLGEQHFKGLVLIAFSQYLQKCPYEEHIKLVQEVTDFAKTCVADENAENCDKSIHTLFGDKLCAIPKLRDNYGELADCCAKQEPERNECFLQHKDDNPNLPPFQRPEAEAMCTSFQENPTSFLGHYLHEVARRHPYFYAPELLYYAEKYNEVLTQCCTESDKAACLTPKLDAVKEKALVAAVRQRMKCSSMQRFGERAFKAWAVARMSQRFPNAEFAEITKLATDVTKINKECCHGDLLECADDRAELAKYMCENQATISSKLQACCDKPVLQKSQCLAEIEHDNIPADLPSIAADFVEDKEVCKNYAEAKDVFLGTFLYEYSRRHPDYSVSLLLRLAKKYEATLEKCCAEGDPPACYGTVLAEFQPLVEEPKNLVKTNCELYEKLGEYGFQNAVLVRYTQKAPQVSTPTLVEAARNLGRVGTKCCTLPEAQRLPCVEDYLSAILNRLCVLHEKTPVSEKVTKCCSGSLVERRPCFSALTVDETYVPKEFKAETFTFHSDICTLPDKEKQIKKQTALAELVKHKPKATEDQLKTVMGDFAQFVDKCCKAADKDNCFATEGPNLVARSKEALA", "values": [{"measurement": "phospho-PKCα (cellular stress signalling)", "setting": "[5]", "value": "caused an increase in activity compared to the control"}, {"measurement": "expression levels of AGT, ACE and AT1", "setting": "[6]", "value": "caused an increase in activity compared to the control"}, {"measurement": "intracellular ROS", "setting": "[7]", "value": "caused an increase in activity compared to the control"}, {"measurement": "intracellular ROS production", "setting": "[7]", "value": "greater ROS production"}]}]}
